Molecular target: the molecule itself

B1: Kip2-EGFP (natural protein, yeast, UniProt P28743 1-706, looked up)
chain: MIQKMSPSLRRPSTRSSSGSSNIPQSPSVRSTSSFSNLTRNSIRSTSNSGSQSISASSTRSNSPLRSVSAKSDPFLHPGRIRIRRSDSINNNSRKNDTYTGSITVTIRPKPRSVGTSRDHVGLKSPRYSQPRSNSHHGSNTFVRDPWFITNDKTIVHEEIGEFKFDHVFASHCTNLEVYERTSKPMIDKLLMGFNATIFAYGMTGSGKTFTMSGNEQELGLIPLSVSYLFTNIMEQSMNGDKKFDVIISYLEIYNERIYDLLESGLEESGSRISTPSRLYMSKSNSNGLGVELKIRDDSQYGVKVIGLTERRCESSEELLRWIAVGDKSRKIGETDYNARSSRSHAIVLIRLTSTNVKNGTSRSSTLSLCDLAGSERATGQQERRKEGSFINKSLLALGTVISKLSADKMNSVGSNIPSPSASGSSSSSGNATNNGTSPSNHIPYRDSKLTRLLQPALSGDSIVTTICTVDTRNDAAAETMNTLRFASRAKNVALHVSKKSIISNGNNDGDKDRTIELLRRQLEEQRRMISELKNRSNIGEPLTKSSNESTYKDIKATGNDGDPNLALMRAENRVLKYKLENCEKLLDKDVVDLQDSEIMEIVEMLPFEVGTLLETKFQGLESQIRQYRKYTQKLEDKIMALEKSGHTAMSLTGCDGTEVIELQKMLERKDKMIEALQSAKRLRDRALKPLINTQQSPHPVVDNDK
- stoichiometry N: 2

Source: PMC3518626 (Current biology : CB, 2012)
